Test results taken from US20190040368.

Biological target: T1, recombinant human iduronate-2 sulfatase (rhIDS)
T1 chain: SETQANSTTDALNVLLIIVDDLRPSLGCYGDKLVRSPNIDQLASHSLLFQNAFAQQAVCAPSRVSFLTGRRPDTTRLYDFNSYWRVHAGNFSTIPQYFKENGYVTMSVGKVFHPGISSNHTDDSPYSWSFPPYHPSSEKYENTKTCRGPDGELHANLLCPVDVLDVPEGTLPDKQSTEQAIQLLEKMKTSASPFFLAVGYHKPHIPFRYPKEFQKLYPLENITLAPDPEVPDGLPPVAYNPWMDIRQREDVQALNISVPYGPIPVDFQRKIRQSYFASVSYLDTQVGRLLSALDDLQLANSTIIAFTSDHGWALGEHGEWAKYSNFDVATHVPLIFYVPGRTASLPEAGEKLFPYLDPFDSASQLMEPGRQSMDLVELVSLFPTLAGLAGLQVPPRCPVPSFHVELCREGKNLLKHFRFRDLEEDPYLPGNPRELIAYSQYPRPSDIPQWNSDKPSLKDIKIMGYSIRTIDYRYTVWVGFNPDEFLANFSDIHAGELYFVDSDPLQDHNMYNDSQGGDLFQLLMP

B1: Hemicentrotus pulcherrimus FGE fusion protein (Lip2pre-HpFGE-6HIS-HDEL) (protein)
chain: ENEDINQNISPTQSHTTATTEEELAEARGEEIDSDPTSEGSGAGEGCGCGSSALNRNHDEDALGLALEENLHDHVQEGAALKYSREANDPISMDHPEANVGAFPRTNQMNFIEGGTFRMGTDKAKIYLDGESPSRLVTLDPYYFDVYEVSNSEFELFVNTTSYITEAEKFGDSFVLEARISEEVKKDISQVVAAAPWWLPVKGAEWRHPEGPDSSISSRMDHPVTHISWNDATAYCQWAGKRLPTEAEWENAARGGLNNRLFPWGNKLMPKDHHRVNIWQGEFPKVNTAEDGYEGTCPVTAFEPNGYGLYNTVGNAWEWVADWWTTVHSPESQNNPVGPDEGTDKVKKGGSYMCHISYCYRYRCEARSQNSPDSSACNLGFRCAATNLPEDIPCSNCNDSTPHHHHHHHDEL
With B1 the % FGly conversion (nano-LC MS); strain T148 (OXYY1801; HpFGE) was 8.1%, the % FGly conversion (nano-LC MS); strain T148 (OXYY1801; HpFGE) (20° C.) was 68.1% and the % FGly conversion (nano-LC MS); strain T148 (OXYY1801; HpFGE), duplicate was 3.72%. The % FGly conversion-re-analyzed samples; DG29U7#7, OXYY1801; HpFGE was 19.2%, the % FGly conversion-re-analyzed samples; DG33U1#6, OXYY1801, HpFGE was 8.3% and the % FGly conversion-re-analyzed samples; DG33U3#6, OXYY1801; HpFGE (20° C.) was 84.5%. The “active rhIDS (4MU fluorogenic activity assay against sandwich ELISA), co-expression in Y. lipolytica” value (“active rhIDS … in Y. lipolytica” below) was “All Y. lipolytica strains co-expressing rFGE with rhIDS resulted in the expression of active rhIDS”.

B2: Human FGE fusion protein (Lip2pre-hFGE-HDEL) (protein)
chain: SQEAGTGAGAGSLAGSCGCGTPQRPGAHGSSAAAHRYSREANAPGPVPGERQLAHSKMVPIPAGVFTMGTDDPQIKQDGEAPARRVTIDAFYMDAYEVSNTEFEKFVNSTGYLTEAEKFGDSFVFEGMLSEQVKTNIQQAVAAAPWWLPVKGANWRHPEGPDSTILHRPDHPVLHVSWNDAVAYCTWAGKRLPTEAEWEYSCRGGLHNRLFPWGNKLQPKGQHYANIWQGEFPVTNTGEDGFQGTAPVDAFPPNGYGLYNIVGNAWEWTSDWWTVHHSVEETLNPKGPPSGKDRVKKGGSYMCHRSYCYRYRCAARSQNTPDSSASNLGFRCAADRLPTMDHDEL
For B2, the “active rhIDS … in Y. lipolytica” value was “All Y. lipolytica strains co-expressing rFGE with rhIDS resulted in the expression of active rhIDS”.

B3: Chimeric Lip2pre-BtFGE-HpFGE-6xHis-HDEL fusion construct (protein)
chain: MKLSTILFTACATLAAAAGGEEAGPEAGAPSLVGSCGCGNPQRPGAQGSSAAAHRYSREANAPGSVPGGRPSPPTKMVPIPAGVFTMGTDKAKIYLDGESPSRLVTLDPYYFDVYEVSNSEFELFVNTTSYITEAEKFGDSFVLEARISEEVKKDISQVVAAAPWWLPVKGAEWRHPEGPDSSISSRMDHPVTHISWNDATAYCQWAGKRLPTEAEWENAARGGLNNRLFPWGNKLMPKDHHRVNIWQGEFPKVNTAEDGYEGTCPVTAFEPNGYGLYNTVGNAWEWVADWWTTVHSPESQNNPVGPDEGTDKVKKGGSYMCHISYCYRYRCEARSQNSPDSSACNLGFRCAATNLPEDIPCSNCNDSTPHHHHHHHDEL
Protein B3 has a % active rhIDS (4MU activity against ELISA); 1 copy rhIDS, 2 copy ChFGE (POX/Hp4d)-20° C. of 0% and a % active rhIDS (4MU activity against ELISA); 1 copy rhIDS, 2 copy ChFGE (POX/Hp4d)-28° C. of 0%.

B4: Lip2pre-6xHis-BtFGE-WBP1 fusion construct (protein)
chain: MKLSTILFTACATLAAAHHHHHHAGGEEAGPEAGAPSLVGSCGCGNPQRPGAQGSSAAAHRYSREANAPGSVPGGRPSPPTKMVPIPAGVFTMGTDDPQIKQDGEAPARRVAIDAFYMDAYEVSNAEFEKFVNSTGYLTEAEKFGDSFVFEGMLSEQVKSDIQQAVAAAPWWLPVKGANWRHPEGPDSTVLHRPDHPVLHVSWNDAVAYCTWAGKRLPTEAEWEYSCRGGLQNRLFPWGNKLQPKGQHYANIWQGEFPVTNTGEDGFRGTAPVDAFPPNGYGLYNIVGNAWEWTSDWWTVHHSAEETINPKGPPSGKDRVKKGGSYMCHKSYCYRYRCAARSQNTPDSSASNLGFRCAADHLPTTGADHLPTTGFTMLNPYYRLTLEQTGTTNFSAIYSTTFKIPDQHGVFTFNLDYKRPGYTFIEEKTRATIRHTANDEWPRSWEITNSWVYLTSAVMVVIAWFLFVVFYLFVGKADKEAVHKQ
In the case of B4, the % active rhIDS (4MU activity against ELISA); 1 copy rhIDS, 2 copy BtFGE-WBPI (POX/Hp4d) is reported as 124%.

B5: MNS1-BtFGE-6xHis fusion construct (protein)
chain: MSFNIPKTTPNFSAKARKLEDQLWQASGLEKSKDSTLPLYKDKPYGEGFVARTTSGRRRRNIIYGVVVGLLFWAIYTFSRSLDGNVSLKDGIKDYEFKGWKGRGKPKTNWVAEQNAVKQAFVDSWNGYHKYAWGKDVYKPQTKTGKNMGPKPLGWFIVDSLDSGGEEAGPEAGAPSLVGSCGCGNPQRPGAQGSSAAAHRYSREANAPGSVPGGRPSPPTKMVPIPAGVFTMGTDDPQIKQDGEAPARRVAIDAFYMDAYEVSNAEFEKFVNSTGYLTEAEKFGDSFVFEGMLSEQVKSDIQQAVAAAPWWLPVKGANWRHPEGPDSTVLHRPDHPVLHVSWNDAVAYCTWAGKRLPTEAEWEYSCRGGLQNRLFPWGNKLQPKGQHYANIWQGEFPVTNTGEDGFRGTAPVDAFPPNGYGLYNIVGNAWEWTSDWWTVHHSAEETINPKGPPSGKDRVKKGGSYMCHKSYCYRYRCAARSQNTPDSSASNLGFRCAADHLPTTGADHLPTTGHHHHHH
For B5, the “% FGly conversion; one copy of rhIDS and 2 copies of BtFGE-MNS1” value was 100% FGly conversion, the % active rhIDS (4MU activity against ELISA); 1 copy rhIDS, 2 copy BtFGE-MNS1 (POX/Hp4d) was 98% and the “% activity of rhIDS; one copy of rhIDS and 2 copies of BtFGE-MNS1” value was 81.5% activity.

B6: Streptomyces coelicolor FGE fusion protein (Lip2pre-ScFGE-6HIS-HDEL) (protein)
chain: MAVAAPSPAAAAEPGPAARPRSTRGQVRLPGGEFAMGDAFGEGYPADGETPVHTVRLRPFHIDETAVTNARFAAFVKATGHVTDAERFGSSAVFHLVVAAPDADVLGSAAGAPWWINVRGAHWRRPEGARSDITGRPNHPVVHVSWNDATAYARWAGKRLPTEAEWEYAARGGLAGRRYAWGDELTPGGRWRCNIWQGRFPHVNTAEDGHLSTAPVKSYRPNGHGLWNTAGNVWEWCSDWFSPTYYAESPTVDPHGPGTGAARVLRGGSYLCHDSYCNRYRVAARSSNTPDSSSGNLGFRCANDADLTSGSAAEHHHHHHHDEL
In the case of B6, the “active rhIDS … in Y. lipolytica” value is reported as “All Y. lipolytica strains co-expressing rFGE with rhIDS resulted in the expression of active rhIDS”.

B7: Gallus gallus Lip2-GgFGE-His6-HDEL fusion construct (protein)
chain: GKETAPGGNCGCSASRSRGGEREAVATVRRYSAAANDGRSSGRGPMVAIPGGVFTMGTDEPEIQQDGEWPARRVHVNSFYMDQYEVSNQEFERFVNSTGYLTEAEKFGDSFVFEGMLSEEVKAEIHQAVAAAPWWLPVKGANWRQPEGPGSSILSRMDHPVLHVSWNDAVAFCTWAGKRLPTEAEWEYGCRGGLEKRLFPWGNKLQPKGQHYANIWQGVFPTNNTAEDGYKGTAPVTAFPPNGYGLYNIVGNAWEWTSDWWAVHHSADEAHNPKGPSSGTDRVKKGGSYMCHKSYCYRYRCAARSQNTPDSSASNLGFRCAADALPDPQHHHHHHHDEL
In the case of B7, the % activity of rhIDS; co-expression with GgFGE is reported as 33%.

B8: Columba livia Lip2-C1FGE-His6-HDEL fusion construct (protein)
chain: MVVIPGGVFTMGTDEPAIQQDGEWPVRKVHVNSFYMDRYEVSNEDFERFVNSTGYVTEAEKFGDSFVFEGMLSEEVKAEIHQAVAAAPWWLPVKGANWKHPEGPDSNISNRMDHPVLHVSWNDAVAFCTWAGKRLPTEAEWEYSCRGGLENRLFPWGNKLQPKGQHYANIWQGVFPTNNTAEDGYKGTAPVTAFPPNGYGLYNIVGNAWEWTADWWAVHHSTEEVHNPKGPSSGTDRVKKGGSYMCHKSYCYRYRCAARSQNTPDSSASNLGFRCAADASPELPHHHHHHHDEL
B8 showed a % activity of rhIDS; co-expression with ClFGE of 61%.

B9: Monodelphis domestica Lip2-MdFGE-His6-HDEL fusion construct (protein)
chain: AARGLGSEAGSAAADAAHPAGTCGCGSPQRPGTAAHRYSREANVAEPASAERPVLTSQMAHIPAGVFTMGTDEPQIKQDGEGPARRVRINSFYMDLYEVSNAEFERFVNSTGYVTEAEKFGDSFVFDSMLSDQVKSDIHQAVAAAPWWLPVKGANWRHPEGPDSSILHRRDHPVLHVSWNDAVAYCTWAGKRLPTEAEWEYSCRGGLENRLFPWGNKLQPKGQHYANIWQGEFPVSNTGEDGYQGTAPVTAFPPNGYGLYNIVGNAWEWTSDWWTVHHSADETLDPKGPPSGSDRVKKGGSYMCHKSYCYRYRCAARSQNTPDSSASNLGFRCAADRLPDTHHHHHHHDEL
With B9 the % activity of rhIDS; co-expression with MdFGE was 58%.

B10: Tupaia chinensis Lip2-TupFGE-His6-HDEL fusion construct (protein)
chain: EEARTGAGATSAQGPCGCGTPQRPGSHGSSAAAHRYSREANVPGPVPGERQPEATKMVPIPAGVFTMGTDDPQIKQDGEAPARRVAIDAFYMDAYEVSNAEFEKFVNSTGYLTEAEKFGDSFVFEGMLSEQVKTGIQQAVAAAPWWLPVKGANWRHPEGPDSTILHRADHPVLHVSWNDAVAYCTWAGKRLPTEAEWEYSCRGGLQNRLFPWGNKLQPRGQHYANIWQGEFPVTNTAEDGFQGTAPVDAFPPNGYGLYNIVGNAWEWTSDWWTVYHSVEETLNPKGPPSGKDRVKKGGSYMCHKSYCYRYRCAARSQNTPDSSASNLGFRCAADRLPTHHHHHHHDEL
B10 was tested, and the % activity of rhIDS; co-expression with TupFGE was 51%.
